The values below come from patent publication US20260242478A1 (published 2026).

In assay [1] the target is T1, PSMA Fab.
T1 construct: also called Anti-PSMA Fab; 006 PSMA Fab
Briefly: clonal phage ELISA; biotinylated PSMA Fab on neutravidin plate, pre-incubated with PSMA antigen as competitor; anti-M13 HRP detection.
Experimental: (§1) Clonal phage were harvested as crude supernatants and screened via standard ELISAs. […] Prior to the addition of clonal phage. wells were incubated with blocking buffer and PSMA antigen or blocking buffer alone. Without washing or aspirating, clonal phage supernatants were then added to the wells and incubated for a short time. Wells were then washed followed by detection of bound phage using a horse radish conjugated anti-M13 antibody.

Assay [2] concerns the target T1, PSMA Fab. Briefly: clonal phage ELISA; biotinylated PSMA Fab on neutravidin plate, blocking buffer alone; anti-M13 HRP detection.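 Note: crude clonal phage supernatants added without washing to wells pretreated with blocking buffer with or without PSMA antigen, short incubation, then washed before detecting bound phage.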 A general note: An ELISA detects its analyte on a solid surface through an enzyme-linked reagent.
Experimental: as §1
For assay [3], the target named is T2, PSMA Fab (biotinylated (site not stated)).
T2 construct: Biotinylated PSMA Fab captured on neutravidin coated plates in the phage ELISA; also called anti-PSMA Fab; 006 PSMA Fab
Briefly: clonal phage ELISA on captured PSMA Fab pre-incubated with PSMA antigen as competitor, anti-M13-HRP detection.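 Note: wells blocked with buffer plus PSMA antigen before phage addition, with blocking buffer alone as the no-competitor control, bound phage detected after washing.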

The target in assay [4] is T2, PSMA Fab. Briefly: clonal phage ELISA on biotinylated PSMA Fab captured on neutravidin plates, anti-M13-HRP detection.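 Note: crude clonal phage supernatants added to wells preincubated with PSMA antigen or with blocking buffer only (no wash between), briefly incubated, then washed before detecting bound phage.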
Experimental: as §1

Where no end group is shown, it is not given here.

For the molecule AQGVCIPQWMCDGF (cysteine pairing not given here; also: fused to pIII of bacteriophage) [Phage-3406], the “Phage binding ELISA signal, Anti-PSMA Fab with PSMA antigen” value in the assay with PSMA Fab [1] was 0.0715. Further, in the assay with PSMA Fab [2], the “Phage binding ELISA signal, Anti-PSMA Fab” value worked out at 1.79.
Consider SVKVCKPAWMCAGF (cysteine pairing not given here; also: fused to pIII of bacteriophage) [Phage-3413], for which the “Phage binding ELISA signal, Anti-PSMA Fab with PSMA antigen” value in the assay with PSMA Fab [1] was 0.102. In addition, the “Phage binding ELISA signal, Anti-PSMA Fab” value with PSMA Fab [2] was 1.79.
Turning to FSVRCVPEWMCAGF (cysteine pairing not given here; also: fused to pIII of bacteriophage) [Phage-3387], in the assay with PSMA Fab [3], the “Phage binding ELISA signal, Anti-PSMA Fab with PSMA antigen” value came to 0.0701. In addition, in the assay with PSMA Fab [4], the “Phage binding ELISA signal, Anti-PSMA Fab” value was 1.8.
For SLAQCVPEWMCFGF [Phage-3411], in the assay with PSMA Fab [1], the “Phage binding ELISA signal, Anti-PSMA Fab with PSMA antigen” value came out at 0.113. Moreover, in the assay with PSMA Fab [2], the “Phage binding ELISA signal, Anti-PSMA Fab” value is 1.79.
On to MQMMCKPDWMCEGF [Phage-3388], for which, in the assay with PSMA Fab [3], the “Phage binding ELISA signal, Anti-PSMA Fab with PSMA antigen” value is 0.0755. Besides, the “Phage binding ELISA signal, Anti-PSMA Fab” value in the assay with PSMA Fab [4] was determined as 1.8.
Consider QGTLCVPSWMCSGF [Phage-3390], for which the “Phage binding ELISA signal, Anti-PSMA Fab with PSMA antigen” value with PSMA Fab [3] is 0.0523. Also, the “Phage binding ELISA signal, Anti-PSMA Fab” value with PSMA Fab [4] came out at 1.8.
Take IGAMCEPKWMCFGF (cysteine pairing not given here; also: fused to pIII of bacteriophage) [Phage-3389]: the “Phage binding ELISA signal, Anti-PSMA Fab with PSMA antigen” value with PSMA Fab [3] came to 0.118. Also, in the assay with PSMA Fab [4], the “Phage binding ELISA signal, Anti-PSMA Fab” value was 1.8.
Taken in the same sequence, the figures for LEVHCRPSWMCVGF [Phage-3384] were 0.062 and 1.81.
In the case of DTFMCRPSWMCNGF [Phage-3409], the “Phage binding ELISA signal, Anti-PSMA Fab with PSMA antigen” value with PSMA Fab [1] worked out at 0.072. Further, in the assay with PSMA Fab [2], the “Phage binding ELISA signal, Anti-PSMA Fab” value amounted to 1.79.
For VEPLCRPMWMCEGI [Phage-3410], in the assay with PSMA Fab [1], the “Phage binding ELISA signal, Anti-PSMA Fab with PSMA antigen” value came out at 0.122. The “Phage binding ELISA signal, Anti-PSMA Fab” value with PSMA Fab [2] was found to be 1.79.
Taken in the same sequence, the figures for SEILCRPAWMCTGF [Phage-3407] were 0.104 and 1.79.
Taken in the same sequence, the figures for ELVRCIPVWMCQGF [Phage-3412] were 0.368 and 1.79.
Take IEAVCKPSWMCAGF (cysteine pairing not given here; also: fused to pIII of bacteriophage) [Phage-3391]: the “Phage binding ELISA signal, Anti-PSMA Fab with PSMA antigen” value in the assay with PSMA Fab [3] was determined as 0.0703. The “Phage binding ELISA signal, Anti-PSMA Fab” value with PSMA Fab [4] was determined as 1.8.
Taken in the same sequence, the figures for FTALCKPMWMCRGF [Phage-3386] were 0.0718 and 1.81.
Consider GDHYCKPDWMCSGF [Phage-3408], for which the “Phage binding ELISA signal, Anti-PSMA Fab with PSMA antigen” value with PSMA Fab [1] was 0.071. Besides, the “Phage binding ELISA signal, Anti-PSMA Fab” value with PSMA Fab [2] turned out to be 1.79.
As to ILPQCVPSWMCEGF [Phage-3385], the “Phage binding ELISA signal, Anti-PSMA Fab with PSMA antigen” value in the assay with PSMA Fab [3] was determined as 0.106. In addition, the “Phage binding ELISA signal, Anti-PSMA Fab” value with PSMA Fab [4] was determined as 1.81.
